Laboratory results taken from PMC4120239 (Nature communications, 2014).

Legend:
[1] = target: desmoglein 3 (Dsg3) on Dsg3 ELISA plates (Homo sapiens, UniProt P32926); assay: ELISA
[2] = target: Dsg3-Fc recombinant fusion protein (Homo sapiens, UniProt P32926); assay: SPR
Chain of Dsg3-Fc recombinant fusion protein (P32926 50-615): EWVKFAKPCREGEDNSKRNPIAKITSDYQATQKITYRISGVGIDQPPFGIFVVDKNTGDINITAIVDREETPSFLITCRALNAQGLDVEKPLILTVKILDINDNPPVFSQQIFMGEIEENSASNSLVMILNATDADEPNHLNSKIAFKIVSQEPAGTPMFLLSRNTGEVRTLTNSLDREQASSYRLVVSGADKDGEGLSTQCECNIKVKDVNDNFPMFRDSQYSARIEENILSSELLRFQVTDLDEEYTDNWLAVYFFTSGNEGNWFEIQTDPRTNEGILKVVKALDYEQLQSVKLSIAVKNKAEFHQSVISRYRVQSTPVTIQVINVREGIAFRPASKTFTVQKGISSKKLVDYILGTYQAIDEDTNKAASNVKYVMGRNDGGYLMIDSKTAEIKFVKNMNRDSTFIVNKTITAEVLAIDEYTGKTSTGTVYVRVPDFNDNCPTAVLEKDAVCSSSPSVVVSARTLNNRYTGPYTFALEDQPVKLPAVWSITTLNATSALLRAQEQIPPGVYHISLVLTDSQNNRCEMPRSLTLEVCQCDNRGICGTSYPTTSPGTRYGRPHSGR

Chain of desmoglein 3 (Dsg3) on Dsg3 ELISA plates (P32926 50-615): as above

B1: F779 scFv, somatically mutated (scFv, V domains shown)
VH: QVQLVQSGADVKKPGASVKVSCTASGNTFTTYSLHWVRQAPGQGLEWMGVIDPSGGSTSYAQKFQGRLTMTRDTSTSTFYMELSSLRSEDTAVYYCARSIESISGRTLGYWGQGTLVTVSS
VL: DIVMTQTPLSSPVTLGQPASISCRSSETLVHSDGNTYLSWLQQRPGQPPRLLIYKISNRFSGVPDRFSGSGAGTDFTLKISRVEAEDVGVYYCLQATEFPYTFGQGTKLEIK
- binding result [1]: binds
- Kd [2]: 1.77 nM
- koff [2]: 0.000548 s⁻¹
- kon [2]: 310000 M⁻¹ s⁻¹

B2: 3.2 scFv mAb, somatically mutated (scFv, V domains shown)
VH: QVQLVQSGAEVKKPGASVKVSCKASGYTFTSYYMHWVRQAPGHGLEWMGIINPSGGIANYAQKFQGRVTMTRDTSTSTVYMDLSSLTSEDTAVYYCARDLGGFDFDYWGQGTLVTVSS
VL: ELALTQPPSVSGSPGQSVTISCTGTSSDIGRYNFVSWYQQHPGKAPKLMIYEIYKRPSGVPDRFSGSRSGNTASLTVSGLQAEDEADYYCSSYVGNNDLVFGGGTQLTVL
- Kd [2]: 1.42 nM
- koff [2]: 0.00231 s⁻¹
- kon [2]: 1.62e+06 M⁻¹ s⁻¹

B3: PVE4-8 scFv mAb, somatically mutated (scFv, V domains shown)
VH: QVQLVQSWAEVKKPGASVKFSCKASGYTFTAYYMHWVRQAPGQGLEWMGIINPSGGIATYAEKFQGRVTMTRDTSTTTVYMELSSLRSQDAAVYYCARDRQGFDLDVWGQGTTVTVSS
VL: ELVLTQPPSASGSPGQSVTISCTGTSSDVGGYNYVSWYQQHPGKAPKLMIYEVNKRPSGVPDRFSGSRSGNTASLTVSGLQAEDEADYYCSSYAGSNNLVFGGGTKVTVL
- Kd [2]: 2.39 nM
- koff [2]: 0.00123 s⁻¹
- kon [2]: 515000 M⁻¹ s⁻¹

B4: 4.2 scFv mAb, somatically mutated (scFv, V domains shown)
VH: EVQLVQSGAEVKKPGASLKVSCQASGYIFTSHYIHWVRQAPGQGLEWMGIINPSGGKTTFAQKFQGRVTMTRDTSTRTVYMEMSGLRSEDTAVYYCARDQSLGMDVWGQGTTVIVSS
VL: ELALTQPPSVSGSPGQSITISCTGTSSDVGGYNYVSWYQQHPGKAPKLMIYEVSKRPSGVSNRFSGSKSGNTASLTISGLQAEDEADYYCSSYAGSNNWVFGGGTKLTVL
- Kd [2]: 0.182 nM
- koff [2]: 0.000712 s⁻¹
- kon [2]: 3.91e+06 M⁻¹ s⁻¹
